Experimental data from patent US6946588B2, “Nucleic acid encoding a modified threonine deaminase and methods of use” (Monsanto Technology LLC, priority 1996, dated 2005).
Residue numbers refer to the chain shown, from its start. In names and notes the source's numbering stands. Read-outs that look alike come from different tables or passages of the source.

Tests used:
[1] = system: E. coli biosynthetic threonine deaminase; settings: for Threonine Deaminase Specific Activity / % activity relative to the results with 0 mM isoleucine: 10 mM threonine; for Hill Coefficient (n) / Km: fit to Hill equation; for Km: read-out: Km Threonine
Protocol: Kinetic analysis of the wild-type and mutant threonine deaminases was performed by determining threonine turnover catalyzed by these threonine deaminases as assayed by the method of Burns (1971). Specifically, α-keto-butyrate production was monitored by coupling to L-lactic dehydrogenase (LDH)-catalyzed reduction of the α-ketoacid in the presence of NADH to form (L)-2-hydroxybutyrate and NAD+. The disappearance of NADH absorbance at 340 nm provides a measure of the threonine deaminase activity. Final reaction conditions were 100 mM KPi, pH 7.8, 0.20 mM NADH, 10 units/mL LDH (defined as LDH turnover of α-ketobutyrate, not pyruvate), and variable threonine. R. Rubrum was grown according to Brandl et al., 1989. The growth and induction of E. coli cells overexpressing the mutant and wild-type biosynthetic threonine deaminases is described above. Cell extracts of R. Rubrum and E. coli were prepared by sonicating pelleted cells (≈0.5 g from 100 ml of culture) in 2 ml of 100 mM KPi, pH 7.0, containing 5% (v/v) glycerol. After centrifugation to remove cellular debris, protein concentrations were determined by the method of Bradford (1976), and threonine deaminase activity was measured.
The kinetic parameters Km and Vmax, and the level of positive cooperativity, i.e., the deviation from normal saturation kinetics where at low substrate concentration the substrate turnover rate is less than a non-cooperative system, were determined. These values were found by fitting the rate data to the Hill equation (Equation 1), which incorporates the coefficient n into the normal Michaelis-Menten equation (n=1 for a non-cooperative system).
In addition to the kinetic parameters, the degree of inhibition of threonine deaminase by isoleucine was also measured at fixed levels of threonine.

[2] = system: threonine deaminase; experiment: Threonine deaminase activity in extracts of transformed E. coli DH5α (in vivo analysis of cloned ilvA genes); format: biochemical; settings: 0 mM isoleucine, 10 mM threonine
Source text: E. coli DH5α cells were transformed with pJM9238 (Kidwell et al., 1995) containing the PHB operon of A. eutrophus by CaCl2/heat shock treatment The PHB operon was under the inducible control of the ptac promoter. E. coli containing pJM9236 were used as a background control with respect to threonine deaminase activity.
E. coli DH5α cells were also cotransformed by CaCl2/heat shock treatment with pJM9238 and pMON25660 (FIG. 5) containing the wild-type E. coli threonine deaminase, under ptrc inducible control.
In a third experiment, E. coli DH5α cells were cotransformed with pJM9238 and pMON25683 (FIG. 11) containing the mutant E. coli ilvA466 (L481F) threonine deaminase, under ptrc inducible control.
(§1) Transformed cells were grown on M9 minimal salts plus 0.2% gluconate and 25 mM L-threonine. At early log phase, the cells were induced with IPTG to induce expression of all four enzymes (i.e., PhbA, PhbB, PhbC, and IlvA or IlvA466). […] The level of α-ketobutyrate was determined by reverse-phase HPLC isolation of the dinitrophenylhydrazine derivative of the α-ketoacid according to Qureshi et al., (1982). Quantitation was based on peak integration comparisons to a standard curve.

[3] = system: E. coli DH5α cells; experiment: Intracellular α-ketobutyrate in transformed E. coli DH5α (HPLC of dinitrophenylhydrazine derivative); format: cell-based; settings: for [α-ketobutyrate]: 1 ml extract from approximately 50 mg cells, M9 + 0.2% gluconate + 25 mM L-threonine; for α-ketobutyrate level relative to cells containing no overexpressed threonine deaminase: transformed E. coli DH5α
Protocol: as §1

[4] = system: soybean callus; experiment: Expression and activity of E. coli IlvA in stably transformed soybean callus; format: cell-based; settings: soybean calli 518-4, 518-15, 518-16, 518-17 transformed with pMON25668
Source text: As shown above, the E. coli IlvA proteins can be functionally expressed in a plant transient expression system. In order to test the expression of a biosynthetic threonine deaminase in a stably transformed plant tissue, non-differentiating callus derived from soybean hypocotyl tissue was transformed with a plasmid containing the E. coli wild-type ilvA threonine deaminase gene using Agrobacterium tumefaciens ABI (Koncz and Schell, 1986).
Soybean callus tissue was transformed with binary Ti plasmid pMON25668 (FIG. 17). Plasmid pMON25668 contains the e35S-expressed, plastid-targeted (ARABSSU1A) E. coli wild-type ilvA threonine deaminase gene, the e35S-expressed, plastid-targeted (ARABSSU1A) A. eutrophus phbA (β-ketothiolase) gene, and the e35s-expressed neomycin phosphotransferase type II (NptII) gene for kanamycin resistance. […] contains two border sequences for T-DNA transfer into the plant chromosome. The right border sequence is the only border required for T-DNA transfer into the plant; however, including the left border sequence terminates T-DNA integration at that point, thereby limiting the unnecessary incorporation of “extra” DNA sequences into the plant chromosome. pMON25668 also contains the minimun sequence of ori-322 for replication and maintenance in E. coli as well as ori-V of the broad host origin RK2 for replication in Agrobacterium. […]

[5] = substrate: CC(C)(COP(=O)(O)OP(=O)(O)OC[C@H]1O[C@@H](n2cnc3c(N)ncnc32)[C@H](O)[C@@H]1OP(=O)(O)O)[C@@H](O)C(=O)NCCC(=O)NCCS; experiment: purified protein, by the assay type; settings: other: thiolysis, 25° C., β-ketocaproyl-CoA fixed at 60 μM
Protocol: To enhance further our understanding of the kinetic characteristics of BktB β-ketothiolase, a thorough kinetic analysis of the enzyme's thiolysis activity was conducted using purified protein. The assay to determine the kinetic parameters Km and Vmax for βketobutyryl-CoA (C4), β-ketovaleryl-CoA (C5), and β-ketocaproyl-CoA (C6), was performed at 25° C. by the in situ generation of the β-keto compounds from their corresponding trans-2,3-enoyl-CoAs essentially as described by Haywood et al. (1988). Utilization of variable substrate concentrations permitted the determination of the descriptive kinetic parameters of the β-ketothiolase.
The assay mixture (1 ml final volume) contained 150 mM EPPS, pH 8.0, 50 mM MgCl2, 1.5 mM pyruvate, 0.4 mM NAD+, and a coupling enzyme cocktail of three units crotonase, five units β-hydroxyacyl-CoA dehydrogenase, and 10 units lactic dehydrogenase. The enoyl-CoA was added to this mixture and the absorbance at 304 nm was monitored until it reached a plateau (typically about 5 min). CoA was added to this mixture, followed by BktB β-ketothiolase to initiate the reaction. The decrease in absorbance at 304 nm due to the thiolysis of the β-ketoacyl-CoA was utilized as a direct measure of activity. […] Reaction rates were calculated in the steady-state within the first minute following initiation. […]

B1: E. coli wild-type: wild-type E. coli biosynthetic threonine deaminase encoded by the ilvA gene (SEQ ID NO:1) (protein, listed as Escherichia coli)
chain: MADSQPLSGAPEGAEYLRAVLRAPVYEAAQVTPLQKMEKLSSRLDNVILVKREDRQPVHSFKLRGAYAMMAGLTEEQKAHGVITASAGNHAQGVAFSSARLGVKALIVMPTATADIKVDRLRGFGGEVLLHGANFDEAKRKAIELSQQQGFTWVPPFDHPMVIAGQGTLALELLQQDAHLDRVFVPVGGGGLAACVAVLIKQLMPQIKVIAVEAEDSACLKAALDAGHPVDLPRVGLFAEGVAVKRIGDETFRLCQEYLDDIITVDSDAICAAMKDLFEDVRAVAEPSGALALAGMKKYIALHNIRGERLAHILSGANVNFHGLRYVSERCELVEQREALLAVTIPEEKGSFLKFCQLLGGRSVTEFNYRFADAKNACIFVGVRLSRGLEERKEILQMLNDGGYSVVDLSDDEMAKLHVRYMVGGRPSHPLQERLYSFEFPESPGALLRFLNTLGTYWNISLFHYRSHGTDYGRVLAAFELGDHEPDFETRLNELGYDCHDETNNPAFRFFLAG
Threonine Deaminase Specific Activity ([1]; 0 mM isoleucine): 16.7 u/mg | % activity relative to the results with 0 mM isoleucine ([1]; 1.0 mM isoleucine): < 2% | Threonine Deaminase Specific Activity ([1]; 1.0 mM isoleucine): 0.3 u/mg | % activity relative to the results with 0 mM isoleucine ([1]; 10.0 mM isoleucine): < 2% | Threonine Deaminase Specific Activity ([1]; 10.0 mM isoleucine): 0.3 u/mg | Hill Coefficient (n) [1]: 1.5 ± 0.2 | Km [1]: 5 ± 1 mM | Threonine Deaminase Specific Activity [2]: 4.20 u/mg | [α-ketobutyrate] [3]: 41.8 µM | α-ketobutyrate level relative to cells containing no overexpressed threonine deaminase [3]: about a three-fold increase | expression (Western blot) and enzymatic activity in transformed calli [4]: can be expressed and maintain enzymatic activity

B2: E. coli L481F (protein)
chain: B1 chain with R120A, L121V, R140A, C195G, V334G, L481F
Threonine Deaminase Specific Activity ([1]; 0 mM isoleucine): 20.3 u/mg | % activity relative to the results with 0 mM isoleucine ([1]; 1.0 mM isoleucine): 56% | Threonine Deaminase Specific Activity ([1]; 1.0 mM isoleucine): 11.3 u/mg | % activity relative to the results with 0 mM isoleucine ([1]; 10.0 mM isoleucine): < 2% | Threonine Deaminase Specific Activity ([1]; 10.0 mM isoleucine): 0.3 u/mg | Hill Coefficient (n) [1]: 1.22 ± 0.01 | Km [1]: 3.08 ± 0.03 mM | Threonine Deaminase Specific Activity [2]: 0.59 u/mg | [α-ketobutyrate] [3]: 579 µM | α-ketobutyrate level relative to cells containing no overexpressed threonine deaminase [3]: greater than 40 times

B3: BktB β-ketothiolase (Cupriavidus necator H16) (protein)
chain: TREVVVVSGVRTAIGTFGGSLKDVAPAELGALVVREALARAQVSGDDVGHVVFGNVIQTEPRDMYLGRVAAVNGGVTINAPALTVNRLCGSGLQAIVSAAQTILLGDTDVAIGGGAESMSRAPYLAPAARWGARMGDAGLVDMMLGALHDPFHRIHMGVTAENVAKEYDISRAQQDEAALESHRRASAAIKAGYFKDQIVPVVSKGRKGDVTFDTDEHVRHDATIDDMTKLRPVFVKENGTVTAGNASGLNDAAAAVVMMERAEAERRGLKPLARLVSYGHAGVDPKAMGIGPVPATKIALERAGLQVSDLDVIEANEAFAAQACAVTKALGLDPAKVNPNGSGISLGHPIGATGALITVKALHELNRVQGRYALVTMCIGGGQGIAAIFERI
Km [5]: 53 ± 6 µM
